# Paper PMC9900698, “Phosphorylation Regulation of a Histone-like HU Protein from Deinococcus radiodurans”
# Target: T1, DrHU WT (Deinococcus radiodurans R1 (ATCC13939), UniProt Q9RZ89 1-122)
# T1 sequence: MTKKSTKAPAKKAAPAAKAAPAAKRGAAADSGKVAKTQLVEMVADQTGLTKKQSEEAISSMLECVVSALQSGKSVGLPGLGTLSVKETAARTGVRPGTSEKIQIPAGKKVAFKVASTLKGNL
# Test: EMSA; 10 mM Mg2+; EMSA: 50 mM NaCl, 20 mM Tris-HCl pH 8.0, 0.1 mg/ml BSA, 3 mM DTT, 0.1 mM EDTA, 10% glycerol, 10 mM MgCl2, 50 nM DNA, 0-3200 nM DrHU, room temperature 20 min; 22% native PAGE in 1x TB
# Details: protein: recombinant; tags: N-terminal His-MBP (pET28a-HMT), removed by TEV; chain copies: 2; label: 5'-FAM; blunt
row,Binder,Kd [nM]
1,Duplex DNA (36bp) (dsDNA) DNA 1: GCAGAGTCAATTATGTCAATGACATAAAAGGCTCAG DNA 2: CTGAGCCTTTTATGTCATTGACATAATTGACTCTGC,1350 ± 200
2,Duplex DNA (24bp) (dsDNA) DNA 1: TCAATTATGTCAATGACATAAAAG DNA 2: CTTTTATGTCATTGACATAATTGA,1480 ± 41.8
3,Duplex DNA (48bp) (dsDNA) DNA 1: TAACAAGCAGAGTCAATTATGTCAATGACATAAAAGGCTCAGGCCTTC DNA 2: GAAGGCCTGAGCCTTTTATGTCATTGACATAATTGACTCTGCTTGTTA,449 ± 29.6
